This note sets out measurements from patent US20250376536A1 (Bristol-Myers Squibb, published 2025).

One assay concerns the target T1, human FAP on cells (human, UniProt Q12884 1-760).
T1 sequence: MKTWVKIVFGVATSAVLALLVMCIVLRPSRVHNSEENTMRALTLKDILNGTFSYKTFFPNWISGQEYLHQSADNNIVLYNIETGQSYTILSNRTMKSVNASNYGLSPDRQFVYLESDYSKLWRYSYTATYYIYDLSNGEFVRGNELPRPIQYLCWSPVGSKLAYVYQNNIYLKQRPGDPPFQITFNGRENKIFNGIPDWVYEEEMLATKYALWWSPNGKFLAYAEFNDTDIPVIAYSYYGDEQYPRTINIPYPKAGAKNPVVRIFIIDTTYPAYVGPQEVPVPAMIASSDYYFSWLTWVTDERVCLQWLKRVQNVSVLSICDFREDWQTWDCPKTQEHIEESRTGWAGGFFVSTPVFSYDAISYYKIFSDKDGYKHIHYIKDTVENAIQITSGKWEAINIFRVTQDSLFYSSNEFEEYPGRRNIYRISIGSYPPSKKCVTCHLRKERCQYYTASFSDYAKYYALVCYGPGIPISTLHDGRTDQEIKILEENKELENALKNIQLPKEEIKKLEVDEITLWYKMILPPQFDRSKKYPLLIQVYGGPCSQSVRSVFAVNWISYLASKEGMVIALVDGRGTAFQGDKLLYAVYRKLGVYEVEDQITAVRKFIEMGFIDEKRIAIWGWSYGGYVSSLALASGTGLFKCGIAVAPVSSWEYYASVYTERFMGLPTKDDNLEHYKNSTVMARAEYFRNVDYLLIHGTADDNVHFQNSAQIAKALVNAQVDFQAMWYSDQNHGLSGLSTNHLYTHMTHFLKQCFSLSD
Nature of the assay: cell-based or functional assay.

The next assay has as its target T2, soluble FAP (human, UniProt Q12884 26-760, limits assumed).
T2 sequence: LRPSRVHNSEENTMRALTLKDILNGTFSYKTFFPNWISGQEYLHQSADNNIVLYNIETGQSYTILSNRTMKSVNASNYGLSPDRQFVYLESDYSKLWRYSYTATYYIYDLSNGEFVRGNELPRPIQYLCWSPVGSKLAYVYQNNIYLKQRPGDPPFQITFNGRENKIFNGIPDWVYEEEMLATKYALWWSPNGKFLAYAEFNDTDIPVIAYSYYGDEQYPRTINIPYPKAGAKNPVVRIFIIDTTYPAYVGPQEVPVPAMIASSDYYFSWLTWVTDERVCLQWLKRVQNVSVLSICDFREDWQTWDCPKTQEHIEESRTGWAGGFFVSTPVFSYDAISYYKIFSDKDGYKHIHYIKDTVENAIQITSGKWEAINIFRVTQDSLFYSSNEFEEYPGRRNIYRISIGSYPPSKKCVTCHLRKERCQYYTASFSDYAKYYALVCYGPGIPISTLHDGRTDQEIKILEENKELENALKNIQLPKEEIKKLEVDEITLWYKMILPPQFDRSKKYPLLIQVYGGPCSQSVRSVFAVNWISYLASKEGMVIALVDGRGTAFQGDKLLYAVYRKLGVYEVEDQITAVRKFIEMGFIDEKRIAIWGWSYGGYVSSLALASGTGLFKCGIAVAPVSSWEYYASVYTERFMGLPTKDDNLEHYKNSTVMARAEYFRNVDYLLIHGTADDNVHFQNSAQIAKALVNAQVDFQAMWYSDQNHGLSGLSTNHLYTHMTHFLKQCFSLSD
Briefly: cell-based or functional assay.

In a further assay the target is T3, human CD40 on cells (human, UniProt P25942 21-277).
T3 construct: Endogenous CD40 on human primary cells and Raji cells; also called CD40-positive macrophage; CD40-positive B cell
Briefly: binding to human CD40-positive B cells.

A further assay has as its target FcγRIIIB (CD16b) (UniProt O75015 17-200, limits assumed). Nature of the assay: SPR, Biacore S200, antibody captured on Protein A chip, FcγR as analyte. As to the method: (§1) Binding of CD40.9H3×FAP.LP62 and the analog of RO7300490 to various Fc gamma receptors (FcγR1 (CD64), FcγRIIIA (CD16a), FcγRIIIB (CD16b), FcγRIIA (CD32a), FcγRIIB (CD32b)) was determined in an analyte/capture assay in vitro. Briefly, an SPR assay was performed using a Biacore S200 with a Biacore Series S Protein A chip (Cytiva). All antibodies were prepared at 4.0 μg/ml in 1×HBS-EP+ running buffer (Cytiva) and captured onto flow cells 2, 3, and 4 through a 60 second contact time at 10 μl/min. An analyte series of the FcγRs (BMS In-House Produced) were prepared at 10,000 nM in 1×HBS-EP+ with eight, three-fold dilutions. Kinetic measurements were conducted with a 120 second association followed by a 120 second dissociation at 30 μl/min. Surface regeneration was preformed by 60 second contact time of 50 mM Glycine pH 1.5 solution (Cytiva) at 30 μl/min. Data was processed in Biacore Insight Evaluation Version 5 (Cytiva). Sensorgrams were double referenced and globally fit to a 1:1 Langmuir model were applicable. Where 1:1 model was not sufficient to describe the interaction (fast-on and fast-off rates), steady state equilibrium fitting was used to determine the equilibrium constant.
Background: Surface plasmon resonance follows binding to a sensor surface in real time, without labels.

In the next assay the target is FcγRIIIA (CD16a) (UniProt P08637 17-208, limits assumed). Described as above. The procedure: as §1
In the next assay the target is T4, FcγRIIA (CD32a) (UniProt P12318 34-217, limits assumed).
T4 sequence (looked up): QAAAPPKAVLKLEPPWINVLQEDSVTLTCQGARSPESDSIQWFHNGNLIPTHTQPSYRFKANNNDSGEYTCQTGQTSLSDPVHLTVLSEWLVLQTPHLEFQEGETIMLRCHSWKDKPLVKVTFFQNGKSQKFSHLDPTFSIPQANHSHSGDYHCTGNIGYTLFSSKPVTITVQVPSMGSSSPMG
The description is as above. The procedure:
as §1

In another assay the target is T5, FcγRI (CD64) (UniProt P12314 16-288, limits assumed).
T5 construct: also called FcγR1 (CD64); FcγR1
The description is as above. As to the method:
as §1

Another assay concerns the target T6, FcγRIIB (CD32b) (UniProt P31994 43-217, limits assumed).
T6 sequence (looked up): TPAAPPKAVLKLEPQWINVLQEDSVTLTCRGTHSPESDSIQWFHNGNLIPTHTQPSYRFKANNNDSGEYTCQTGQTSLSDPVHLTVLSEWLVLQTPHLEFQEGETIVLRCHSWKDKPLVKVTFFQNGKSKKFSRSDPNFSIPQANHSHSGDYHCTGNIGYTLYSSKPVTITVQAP
Described as above. As to the method:
as §1

As a reminder, the EC50 is the concentration needed to bring the measured effect to its halfway point.

Sequence of FcγRIIIA (CD16a) (P08637 17-208 limits assumed): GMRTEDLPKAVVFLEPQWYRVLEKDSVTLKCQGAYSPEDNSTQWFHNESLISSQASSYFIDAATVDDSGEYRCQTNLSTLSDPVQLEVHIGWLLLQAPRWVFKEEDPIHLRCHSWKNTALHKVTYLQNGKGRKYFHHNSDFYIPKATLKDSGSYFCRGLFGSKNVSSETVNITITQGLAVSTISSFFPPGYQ
T5 sequence (P12314 16-288 limits assumed): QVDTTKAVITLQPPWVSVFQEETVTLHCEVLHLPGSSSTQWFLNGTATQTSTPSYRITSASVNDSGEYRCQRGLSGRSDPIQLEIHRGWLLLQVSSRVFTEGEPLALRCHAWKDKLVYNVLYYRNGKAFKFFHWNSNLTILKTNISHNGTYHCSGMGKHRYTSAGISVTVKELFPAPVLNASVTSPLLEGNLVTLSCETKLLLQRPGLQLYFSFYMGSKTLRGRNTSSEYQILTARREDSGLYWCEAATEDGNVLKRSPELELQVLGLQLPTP
Sequence of FcγRIIIB (CD16b) (O75015 17-200 limits assumed): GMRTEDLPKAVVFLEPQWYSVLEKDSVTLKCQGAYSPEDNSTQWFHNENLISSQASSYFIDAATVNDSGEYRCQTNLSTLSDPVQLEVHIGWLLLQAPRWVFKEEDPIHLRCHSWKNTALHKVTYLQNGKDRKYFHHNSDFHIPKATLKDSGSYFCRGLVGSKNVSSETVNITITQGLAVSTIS
T3 sequence (P25942 21-277): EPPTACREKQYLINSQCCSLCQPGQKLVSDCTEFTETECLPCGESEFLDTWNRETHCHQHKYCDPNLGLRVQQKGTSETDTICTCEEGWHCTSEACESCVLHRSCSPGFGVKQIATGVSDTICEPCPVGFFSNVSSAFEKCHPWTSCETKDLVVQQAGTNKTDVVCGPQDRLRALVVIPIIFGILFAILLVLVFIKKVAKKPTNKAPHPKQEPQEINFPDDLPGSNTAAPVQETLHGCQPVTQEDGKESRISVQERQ

B1: CD40.9H3×FAP.LP62 bispecific antibody (bispecific antibody, human IgG1, kappa, L234A L235A)
heavy 1: EVQLVESGGGLVQPGGSLRLSCAASGFTFIGYSMNWVRQAPGKGLEWVSYISSYESTIYYADSVKGRFTISRDNAKNSLYLQMNSLRAEDTAVYYCARSRITLVRGVPRYFDLWGRGTLVTVSSASTKGPSVFPLAPSSKSTSGGTAALGCLVKDYFPEPVTVSWNSGALTSGVHTFPAVLQSSGLYSLSSVVTVPSSSLGTQTYICNVNHKPSNTKVDKKVEPKSCDKTHTCPPCPAPEAAGGPSVFLFPPKPKDTLMISRTPEVTCVVVSVSHEDPEVKFNWYVDGVEVHNAKTKPREEQYNSTYRVVSVLTVLHQDWLNGKEYKCKVSNKALPAPIEKTISKAKGQPREPQVYVLPPSREEMTKNQVSLLCLVKGFYPSDIAVEWESNGQPENNYLTWPPVLDSDGSFFLYSKLTVDKSRWQQGNVFSCSVMHEALHNHYTQKSLSLSPG
heavy 2: EVQLVESGGGLVQPGGSLRLSCAASGFTFIGYSMNWVRQAPGKGLEWVSYISSYESTIYYADSVKGRFTISRDNAKNSLYLQMNSLRAEDTAVYYCARSRITLVRGVPRYFDLWGRGTLVTVSSASTKGPSVFPLAPSSKSTSGGTAALGCLVKDYFPEPVTVSWNSGALTSGVHTFPAVLQSSGLYSLSSVVTVPSSSLGTQTYICNVNHKPSNTKVDKKVEPKSCDKTHTCPPCPAPEAAGGPSVFLFPPKPKDTLMISRTPEVTCVVVSVSHEDPEVKFNWYVDGVEVHNAKTKPREEQYNSTYRVVSVLTVLHQDWLNGKEYKCKVSNKALPAPIEKTISKAKGQPREPQVYVYPPSREEMTKNQVSLTCLVKGFYPSDIAVEWESNGQPENNYKTTPPVLDSDGSFALVSKLTVDKSRWQQGNVFSCSVMHEALHNHYTQKSLSLSPGGGSGGGGSGGGGSGGGGSEVQLLESGGGLVQPGGSLRLSCAASGFTFSSRGMSWVRQAPGKCLEWVSFISSSGTYVYYADSVKGRFTISRDNSKNTLYLQMNSLRAEDTAVYYCARDLPRTGVYFGMDVWGQGTTVTVSSGGGGSGGGGSGGGGSGGGGSDIQMTQSPSSLSASVGDRVTITCRASQSIFNYLNWYQQKPGKAPKLLIYGASTLQSGVPSRFSGSGSGTDFTLTISSLQPEDFATYYCQESYSTPYTFGCGTKVEIK
light: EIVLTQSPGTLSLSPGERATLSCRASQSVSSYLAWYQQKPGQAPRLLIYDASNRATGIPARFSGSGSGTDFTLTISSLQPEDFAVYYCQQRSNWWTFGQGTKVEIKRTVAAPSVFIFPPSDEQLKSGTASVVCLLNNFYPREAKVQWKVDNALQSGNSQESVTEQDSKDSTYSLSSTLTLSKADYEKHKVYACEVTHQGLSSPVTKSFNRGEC
notes: 2+1 format: two anti-CD40 9H3 Fabs on an IgG1 Fc with L234A, L235A, D265S and heterodimerization mutations; Ratio 1:1:2
For B1, the “IL12p40 release, human DC + HFF1 co-culture, EC50, soluble FAP 0 ng/mL” value with human FAP on cells was 0.13 nM. Further, in the assay with soluble FAP, the “IL12p40 release, human DC + HFF1 co-culture, EC50, soluble FAP 120 ng/mL” value amounted to 0.46 nM. In addition, the “IL12p40 release, human DC + HFF1 co-culture, EC50, soluble FAP 480 ng/mL” value with soluble FAP was determined as 0.8 nM. In addition, the EC50 with human CD40 on cells worked out at 7.53 nM. The binding result with FcγRIIIB (CD16b), in the assay with FcγRIIIA (CD16a), with FcγRIIA (CD32a), with FcγRI (CD64) and in the assay with FcγRIIB (CD32b) was “no binding” each time.
